From patent US5864028, “Degradation resistant mRNA derivatives linked to TNF-α ribozymes” (Gene Shears Pty. Limited)

Legend:
[1] = target: GAPDH (37 kDa ribozyme-binding protein purified from PBMN cells) (Homo sapiens, UniProt P04406 P04406:2-335); test: ribozyme cleavage rate enhancement; 100 ng/ul GAPDH, 2 mM MgCl2, 37 C; details: tags: none; Mono Q purified from PBMN cytoplasmic extract; chain copies: 4 (stated homotetramer); label: 32P internal; hammerhead ribozyme
Description: FIG. 29(A) Ribozymes (2 nM) and the [γ^32P]-labelled 20-mer target RNA (50 nM) were incubated at 37° C. in the presence or absence of different concentrations of purified protein (Filled rectangle) or lactate dehydrogenase (open rectangle) as unspecific protein in a reaction buffer containing 50 mM Tris-HCl pH 7.5 and 1 mM MgCl_2. […] The radioactivity contained in each 5' end was quantified by Phospho-Imager. […] Appropriate time (min) is indicated on the top of each lane. The radioactivity containing in each 5' end-labelled product was quantified and expressed as percentage of radioactivity present in the substrate FIG. 29(D).
Standard cleavage reactions were carried out at 37° C. in buffer containing 50 mM Tris-HCl, pH 7.5 and 10 mM MgCl_2. Multiple turnover cleavage reactions in the presence or absence of GAPDH were performed with 5 mM […], unless otherwise indicated. Ribozyme and substrate were heated separately at 90° C. for 1 min and cooled at 4° C. After this step both RNAs were mixed in cleavage buffer containing 0.2 U RNasin and then divided into 3 samples. Following addition of GAPDH or lactate dehydrogenase (LD) as an unspecific protein to one of the samples, reactions were initiated by the addition of MgCl_2. At specified times, 10 μl aliquots were removed and the reaction was stopped by the addition of 20 mM EDTA and phenol.

[2] = target: T1, GAPDH (commercial, rabbit muscle) (Oryctolagus cuniculus, UniProt P46406 P46406:1-333); test: ribozyme cleavage rate enhancement; none with LD; details: tags: commercial; chain copies: 4 (stated homotetramer); hammerhead ribozyme with 5'-3' end duplex
T1 sequence (P46406 whole entry, one chain of several): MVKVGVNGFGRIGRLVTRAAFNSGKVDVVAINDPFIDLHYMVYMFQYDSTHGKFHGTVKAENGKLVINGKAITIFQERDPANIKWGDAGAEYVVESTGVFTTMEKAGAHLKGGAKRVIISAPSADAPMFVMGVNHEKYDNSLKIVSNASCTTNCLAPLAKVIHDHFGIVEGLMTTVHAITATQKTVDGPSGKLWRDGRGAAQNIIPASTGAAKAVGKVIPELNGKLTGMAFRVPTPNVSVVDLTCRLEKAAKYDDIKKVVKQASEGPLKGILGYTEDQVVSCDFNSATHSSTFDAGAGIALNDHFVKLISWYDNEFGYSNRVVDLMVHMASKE
Description: Autoradiogram of denaturing gels of multiple turnover reactions in the absence FIG. 32(A) or in the presence of GAPDH FIG. 32(B) as well as in the presence of LD as unspecific protein FIG. 32(C). 5 nM of the ribozyme and 50 nM of […] 15-mer substrate were incubated in a reaction mixture containing 50 mM Tris-HCl pH 7.5 and 5 mM MgCl_2 at 37° C. in the absence or presence of proteins (150 ng/μl) and then processed as described below. FIG. 32(D) Quantification of the data shown in A, B and C by Phospho-Imager. Appropriate time (min) is indicated on the top of each lane. FIG. 32(E) Control experiments. A Phospho-Imager printout is shown following separation of the products by 15% PAGE gel. No cleavage activity was seen upon addition of GAPDH in absence of Mg^++ (lane 4). The cleavage rate of the ribozyme (lane 2) is enhanced by the addition of GAPDH (Lane 3). This cleavage enhancement is shut down by phenol treatment of the GAPDH preparation prior to addition (lane 5). Arrows indicated the cleavage products.
Standard cleavage reactions were carried out at 37° C. in buffer containing 50 mM Tris-HCl, pH 7.5 and 10 mM MgCl_2. Multiple turnover cleavage reactions in the presence or absence of GAPDH were performed with 5 mM […], unless otherwise indicated. Ribozyme and substrate were heated separately at 90° C. for 1 min and cooled at 4° C. […]

[3] = target: T1, GAPDH (commercial, rabbit muscle); test: cleavage enhancement similar to IL-2-Rz2; details: tags: commercial; chain copies: 4 (stated homotetramer); hammerhead ribozyme with 5'-3' end duplex

GAPDH (37 kDa ribozyme-binding protein purified from PBMN cells), sequence (P04406 2-335, one chain of several): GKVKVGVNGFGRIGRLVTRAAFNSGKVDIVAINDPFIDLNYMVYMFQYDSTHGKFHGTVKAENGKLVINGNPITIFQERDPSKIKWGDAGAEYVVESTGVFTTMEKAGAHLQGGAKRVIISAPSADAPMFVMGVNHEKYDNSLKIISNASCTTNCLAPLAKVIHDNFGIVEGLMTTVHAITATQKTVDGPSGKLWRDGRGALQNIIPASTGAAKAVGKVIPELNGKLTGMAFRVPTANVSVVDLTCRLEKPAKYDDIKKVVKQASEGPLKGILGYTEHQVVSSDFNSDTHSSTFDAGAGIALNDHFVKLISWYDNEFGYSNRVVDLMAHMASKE

B1: TNF-alpha-Rz (ssRNA)
RNA: GUAAGAUGAUCUCUGAUGAGUCCGUGAGGACGAAACUGCCUGGUACUGAAUU
For B1, which activity [1] is on record?
The activity was 3.8 fold.

With GGUGCAAUGCAACUGAUGAGUCCGUGAGGACGAAACAGGAGUUGCGAAUU (ssRNA) [IL-2-Rz2] as the binder, how does the activity [2] read?
Its activity is 15 fold.

B2: IL-2-Rz3 (ssRNA)
RNA: GACUUAGUGCAAUGCAACUGAUGAGUCCGUGAGGACGAAACAGGAGUUGCGAAUU
How did the activity [3] turn out when B2 was run?
Its activity is roughly 15 fold.
